According to patent publication US20130005646A1 (Novo Nordisk, published 2013):
Starred links: 1 amine or outer side, 2 acyl side, 3 side chain; linkers in the order of their positions; H or OH if unused. Positions of bridges follow the written chain, without caps; N, C: chain ends. Groups on a side chain read outwards from the residue. No end group written: not given here. *: point of attachment. X1 = (S)‑4‑Carboxy‑4‑(19-carboxynonadecanoylamino)butyryl, O=C(O)CCCCCCCCCCCCCCCCCCC(=O)N[C@@H](CCC(=O)*)C(=O)O; C20 diacid = O=C(O)CCCCCCCCCCCCCCCCCCC(=O)*; γGlu = O=C(O)[C@H](CCC(=O)[*:2])N[*:1]; AEEA = NCCOCCOCC(=O)O

B1: N-alpha-[(S)-4-Carboxy-4-(19-carboxynonadecanoylamino)butyryl]-[His1,Glu14,His17,Arg18,Ala25,Pro26,Ser28,Ser29]-pramlintide (peptide)
peptide: X1-HCNTATCATQRLAEFLHRSSNNFGAPLSSTNVGSNTY-NH2
modifications: disulfide 2-7
SMILES: CC(C)C[C@H](NC(=O)[C@H](CCCNC(=N)N)NC(=O)[C@H](CCC(N)=O)NC(=O)[C@@H](NC(=O)[C@H](C)NC(=O)[C@@H]1CSSC[C@H](NC(=O)[C@H](Cc2c[nH]cn2)NC(=O)CC[C@H](NC(=O)CCCCCCCCCCCCCCCCCCC(=O)O)C(=O)O)C(=O)N[C@@H](CC(N)=O)C(=O)N[C@@H]([C@@H](C)O)C(=O)N[C@@H](C)C(=O)N[C@@H]([C@@H](C)O)C(=O)N1)[C@@H](C)O)C(=O)N[C@@H](C)C(=O)N[C@@H](CCC(=O)O)C(=O)N[C@@H](Cc1ccccc1)C(=O)N[C@@H](CC(C)C)C(=O)N[C@@H](Cc1c[nH]cn1)C(=O)N[C@@H](CCCNC(=N)N)C(=O)N[C@@H](CO)C(=O)N[C@@H](CO)C(=O)N[C@@H](CC(N)=O)C(=O)N[C@@H](CC(N)=O)C(=O)N[C@@H](Cc1ccccc1)C(=O)NCC(=O)N[C@@H](C)C(=O)N1CCC[C@H]1C(=O)N[C@@H](CC(C)C)C(=O)N[C@@H](CO)C(=O)N[C@@H](CO)C(=O)N[C@H](C(=O)N[C@@H](CC(N)=O)C(=O)N[C@H](C(=O)NCC(=O)N[C@@H](CO)C(=O)N[C@@H](CC(N)=O)C(=O)N[C@H](C(=O)N[C@@H](Cc1ccc(O)cc1)C(N)=O)[C@@H](C)O)C(C)C)[C@@H](C)O
B2: N-alpha-[(S)-4-Carboxy-4-(19-carboxynonadecanoylamino)butyryl]-[His1,Glu14,His17,Arg18,Glu25,Ser28,Arg29]-pramlintide (peptide)
peptide: {C20 diacid-γGlu}-HCNTATCATQRLAEFLHRSSNNFGEILSRTNVGSNTY-NH2
modifications: disulfide 2-7
SMILES: CC[C@H](C)[C@H](NC(=O)[C@H](CCC(=O)O)NC(=O)CNC(=O)[C@H](Cc1ccccc1)NC(=O)[C@H](CC(N)=O)NC(=O)[C@H](CC(N)=O)NC(=O)[C@H](CO)NC(=O)[C@H](CO)NC(=O)[C@H](CCCNC(=N)N)NC(=O)[C@H](Cc1c[nH]cn1)NC(=O)[C@H](CC(C)C)NC(=O)[C@H](Cc1ccccc1)NC(=O)[C@H](CCC(=O)O)NC(=O)[C@H](C)NC(=O)[C@H](CC(C)C)NC(=O)[C@H](CCCNC(=N)N)NC(=O)[C@H](CCC(N)=O)NC(=O)[C@@H](NC(=O)[C@H](C)NC(=O)[C@@H]1CSSC[C@H](NC(=O)[C@H](Cc2c[nH]cn2)NC(=O)CC[C@H](NC(=O)CCCCCCCCCCCCCCCCCCC(=O)O)C(=O)O)C(=O)N[C@@H](CC(N)=O)C(=O)N[C@@H]([C@@H](C)O)C(=O)N[C@@H](C)C(=O)N[C@@H]([C@@H](C)O)C(=O)N1)[C@@H](C)O)C(=O)N[C@@H](CC(C)C)C(=O)N[C@@H](CO)C(=O)N[C@@H](CCCNC(=N)N)C(=O)N[C@H](C(=O)N[C@@H](CC(N)=O)C(=O)N[C@H](C(=O)NCC(=O)N[C@@H](CO)C(=O)N[C@@H](CC(N)=O)C(=O)N[C@H](C(=O)N[C@@H](Cc1ccc(O)cc1)C(N)=O)[C@@H](C)O)C(C)C)[C@@H](C)O
B3: N-alpha-[(S)-4-Carboxy-4-(19-carboxynonadecanoylamino)butyryl]-[His1,Glu14,His17,Arg18,Glu22,Ala25,Arg26,Ser28,Ser29]-pramlintide (peptide)
peptide: X1-HCNTATCATQRLAEFLHRSSNEFGARLSSTNVGSNTY-NH2
modifications: disulfide 2-7
SMILES: CC(C)C[C@H](NC(=O)[C@H](CCCNC(=N)N)NC(=O)[C@H](CCC(N)=O)NC(=O)[C@@H](NC(=O)[C@H](C)NC(=O)[C@@H]1CSSC[C@H](NC(=O)[C@H](Cc2c[nH]cn2)NC(=O)CC[C@H](NC(=O)CCCCCCCCCCCCCCCCCCC(=O)O)C(=O)O)C(=O)N[C@@H](CC(N)=O)C(=O)N[C@@H]([C@@H](C)O)C(=O)N[C@@H](C)C(=O)N[C@@H]([C@@H](C)O)C(=O)N1)[C@@H](C)O)C(=O)N[C@@H](C)C(=O)N[C@@H](CCC(=O)O)C(=O)N[C@@H](Cc1ccccc1)C(=O)N[C@@H](CC(C)C)C(=O)N[C@@H](Cc1c[nH]cn1)C(=O)N[C@@H](CCCNC(=N)N)C(=O)N[C@@H](CO)C(=O)N[C@@H](CO)C(=O)N[C@@H](CC(N)=O)C(=O)N[C@@H](CCC(=O)O)C(=O)N[C@@H](Cc1ccccc1)C(=O)NCC(=O)N[C@@H](C)C(=O)N[C@@H](CCCNC(=N)N)C(=O)N[C@@H](CC(C)C)C(=O)N[C@@H](CO)C(=O)N[C@@H](CO)C(=O)N[C@H](C(=O)N[C@@H](CC(N)=O)C(=O)N[C@H](C(=O)NCC(=O)N[C@@H](CO)C(=O)N[C@@H](CC(N)=O)C(=O)N[C@H](C(=O)N[C@@H](Cc1ccc(O)cc1)C(N)=O)[C@@H](C)O)C(C)C)[C@@H](C)O
B4: N-alpha-[(S)-4-Carboxy-4-(19-carboxynonadecanoylamino)butyryl]-[des1,Gly3,Glu14,His17,Arg18,Gln21,Gln22,Glu31,Gly35]-pramlintide (peptide)
peptide: {C20 diacid-γGlu}-CGTATCATQRLAEFLHRSSQQFGPILPPTEVGSGTY-NH2
modifications: disulfide 1-6
SMILES: CC[C@H](C)[C@H](NC(=O)[C@@H]1CCCN1C(=O)CNC(=O)[C@H](Cc1ccccc1)NC(=O)[C@H](CCC(N)=O)NC(=O)[C@H](CCC(N)=O)NC(=O)[C@H](CO)NC(=O)[C@H](CO)NC(=O)[C@H](CCCNC(=N)N)NC(=O)[C@H](Cc1c[nH]cn1)NC(=O)[C@H](CC(C)C)NC(=O)[C@H](Cc1ccccc1)NC(=O)[C@H](CCC(=O)O)NC(=O)[C@H](C)NC(=O)[C@H](CC(C)C)NC(=O)[C@H](CCCNC(=N)N)NC(=O)[C@H](CCC(N)=O)NC(=O)[C@@H](NC(=O)[C@H](C)NC(=O)[C@@H]1CSSC[C@H](NC(=O)CC[C@H](NC(=O)CCCCCCCCCCCCCCCCCCC(=O)O)C(=O)O)C(=O)NCC(=O)N[C@@H]([C@@H](C)O)C(=O)N[C@@H](C)C(=O)N[C@@H]([C@@H](C)O)C(=O)N1)[C@@H](C)O)C(=O)N[C@@H](CC(C)C)C(=O)N1CCC[C@H]1C(=O)N1CCC[C@H]1C(=O)N[C@H](C(=O)N[C@@H](CCC(=O)O)C(=O)N[C@H](C(=O)NCC(=O)N[C@@H](CO)C(=O)NCC(=O)N[C@H](C(=O)N[C@@H](Cc1ccc(O)cc1)C(N)=O)[C@@H](C)O)C(C)C)[C@@H](C)O
B5: N-alpha-[(S)-4-Carboxy-4-(19-carboxynonadecanoylamino)butyryl]-[des1,Gly3,Glu14,His17,Arg18,Glu31,Gly35]-pramlintide (peptide)
peptide: {C20 diacid-γGlu}-CGTATCATQRLAEFLHRSSNNFGPILPPTEVGSGTY-NH2
modifications: disulfide 1-6
SMILES: CC[C@H](C)[C@H](NC(=O)[C@@H]1CCCN1C(=O)CNC(=O)[C@H](Cc1ccccc1)NC(=O)[C@H](CC(N)=O)NC(=O)[C@H](CC(N)=O)NC(=O)[C@H](CO)NC(=O)[C@H](CO)NC(=O)[C@H](CCCNC(=N)N)NC(=O)[C@H](Cc1c[nH]cn1)NC(=O)[C@H](CC(C)C)NC(=O)[C@H](Cc1ccccc1)NC(=O)[C@H](CCC(=O)O)NC(=O)[C@H](C)NC(=O)[C@H](CC(C)C)NC(=O)[C@H](CCCNC(=N)N)NC(=O)[C@H](CCC(N)=O)NC(=O)[C@@H](NC(=O)[C@H](C)NC(=O)[C@@H]1CSSC[C@H](NC(=O)CC[C@H](NC(=O)CCCCCCCCCCCCCCCCCCC(=O)O)C(=O)O)C(=O)NCC(=O)N[C@@H]([C@@H](C)O)C(=O)N[C@@H](C)C(=O)N[C@@H]([C@@H](C)O)C(=O)N1)[C@@H](C)O)C(=O)N[C@@H](CC(C)C)C(=O)N1CCC[C@H]1C(=O)N1CCC[C@H]1C(=O)N[C@H](C(=O)N[C@@H](CCC(=O)O)C(=O)N[C@H](C(=O)NCC(=O)N[C@@H](CO)C(=O)NCC(=O)N[C@H](C(=O)N[C@@H](Cc1ccc(O)cc1)C(N)=O)[C@@H](C)O)C(C)C)[C@@H](C)O
B6: N-alpha-[(S)-4-Carboxy-4-(19-carboxynonadecanoylamino)butyryl]-[Glu1,Glu14,His17,Arg18]-pramlintide (peptide)
peptide: {C20 diacid-γGlu}-ECNTATCATQRLAEFLHRSSNNFGPILPPTNVGSNTY-NH2
modifications: disulfide 2-7
SMILES: CC[C@H](C)[C@H](NC(=O)[C@@H]1CCCN1C(=O)CNC(=O)[C@H](Cc1ccccc1)NC(=O)[C@H](CC(N)=O)NC(=O)[C@H](CC(N)=O)NC(=O)[C@H](CO)NC(=O)[C@H](CO)NC(=O)[C@H](CCCNC(=N)N)NC(=O)[C@H](Cc1c[nH]cn1)NC(=O)[C@H](CC(C)C)NC(=O)[C@H](Cc1ccccc1)NC(=O)[C@H](CCC(=O)O)NC(=O)[C@H](C)NC(=O)[C@H](CC(C)C)NC(=O)[C@H](CCCNC(=N)N)NC(=O)[C@H](CCC(N)=O)NC(=O)[C@@H](NC(=O)[C@H](C)NC(=O)[C@@H]1CSSC[C@H](NC(=O)[C@H](CCC(=O)O)NC(=O)CC[C@H](NC(=O)CCCCCCCCCCCCCCCCCCC(=O)O)C(=O)O)C(=O)N[C@@H](CC(N)=O)C(=O)N[C@@H]([C@@H](C)O)C(=O)N[C@@H](C)C(=O)N[C@@H]([C@@H](C)O)C(=O)N1)[C@@H](C)O)C(=O)N[C@@H](CC(C)C)C(=O)N1CCC[C@H]1C(=O)N1CCC[C@H]1C(=O)N[C@H](C(=O)N[C@@H](CC(N)=O)C(=O)N[C@H](C(=O)NCC(=O)N[C@@H](CO)C(=O)N[C@@H](CC(N)=O)C(=O)N[C@H](C(=O)N[C@@H](Cc1ccc(O)cc1)C(N)=O)[C@@H](C)O)C(C)C)[C@@H](C)O

The binders below were run against T1, human amylin 3(a) receptor (human calcitonin receptor + RAMP-3) (human, UniProt P30988 25-474; O60896 24-148) (assay: cell-based or functional assay).
T1 sequence (looked up) 1: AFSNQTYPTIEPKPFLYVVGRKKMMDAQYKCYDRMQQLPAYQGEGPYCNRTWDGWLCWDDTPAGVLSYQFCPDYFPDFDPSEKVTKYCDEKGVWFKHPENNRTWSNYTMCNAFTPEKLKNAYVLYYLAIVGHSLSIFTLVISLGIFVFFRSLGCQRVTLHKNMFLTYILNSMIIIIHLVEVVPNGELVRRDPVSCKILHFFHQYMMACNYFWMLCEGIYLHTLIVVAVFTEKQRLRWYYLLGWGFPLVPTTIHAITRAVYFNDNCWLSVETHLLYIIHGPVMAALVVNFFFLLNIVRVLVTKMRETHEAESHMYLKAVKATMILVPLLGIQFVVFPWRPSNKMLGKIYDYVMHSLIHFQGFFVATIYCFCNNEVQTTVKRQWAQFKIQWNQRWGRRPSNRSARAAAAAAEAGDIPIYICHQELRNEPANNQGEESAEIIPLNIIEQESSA
T1 sequence (looked up) 2: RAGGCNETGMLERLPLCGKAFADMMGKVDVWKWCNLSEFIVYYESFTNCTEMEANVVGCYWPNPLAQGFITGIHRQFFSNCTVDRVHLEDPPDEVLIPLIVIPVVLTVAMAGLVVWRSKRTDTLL

B1 and B2 are within 1.5-fold of each other in “Amylin receptor human EC50” value: 0.115 nM for the first, 0.0779 nM for the second.

RCNTATCATQRLAEFLHRSSK([AEEA-AEEA-γGlu-19‑carboxyheptadecanoyl])NFGPILPPTNVGSNTY-NH2 (disulfide 2-7) and B3 are within 1.5-fold of each other in “Amylin receptor human EC50” value: 0.0994 nM for the first, 0.127 nM for the second.

First: B4
Second: B5
The “Amylin receptor human EC50” value of the first is 1.5-fold higher: 0.253 nM for the first, 0.164 nM for the second.

In the case of B6, the “Amylin receptor human EC50” value is reported as 0.353 nM.

Each binder was assayed against T2, human calcitonin (a) receptor (human, UniProt P30988 25-474) (assay: cell-based or functional assay).
T2 sequence (looked up): T1 sequence (looked up) 1

First: B1
Second: B2
The “CTa receptor human EC50” value of the first is 1.8-fold higher: 0.24 nM for the first, 0.131 nM for the second.

Compared with RCNTATCATQRLAEFLHRSSK([AEEA-AEEA-γGlu-19‑carboxyheptadecanoyl])NFGPILPPTNVGSNTY-NH2 (disulfide 2-7), B3 is 1.7-fold lower in “CTa receptor human EC50” value: 0.469 nM for the first, 0.279 nM for the second.

B4 and B5 are within 1.5-fold of each other in “CTa receptor human EC50” value: 0.284 nM for the first, 0.222 nM for the second.

For B6, the “CTa receptor human EC50” value was 1.65 nM.
